Source: publication PMC4861429 (The Journal of Biological Chemistry, 2016)
Numbering of substitutions follows the chain as printed. In names and notes the source's numbering stands.

Experiments:
[1] = molecular target: the molecule itself; test: SEC-MALS; TodS(23–978) 1 mg/ml on Superdex G200, PBS pH 7.3 with 10% glycerol and 5 mM DTT, 0.25 ml/min, 25 °C
[2] = molecular target: the molecule itself; test: SEC; purified PAS2(611–729) compared with the marker carbonic anhydrase (29 kDa)
[3] = molecular target: the molecule itself; test: negative-stain electron microscopy with Ni-NTA gold labelling; Ni-NTA gold (5 nm) on C-terminal His6-tagged TodS(43–978), negatively stained with 1% uranyl acetate
[4] = molecular target: the molecule itself; test: SEC; purified His6-tagged PAS1(23–168) compared with the markers BSA (66 kDa) and carbonic anhydrase (29 kDa)
[5] = molecular target: the molecule itself; test: not stated; the protein used for ITC is called 'the E146A mutant dimer'; how the dimer was shown for this mutant is not told

B1: dimerization helix-containing TodS (residues 23–978) (enzyme, Pseudomonas putida F1, UniProt A5W4E3 23-978, looked up)
chain: KEKGSEELTCEEHARIIFDGLYEFVGLLDAHGNVLEVNQVALEGGGITLEEIRGKPFWKARWWQISKKTEATQKRLVETASSGEFVRCDVEILGKSGGREVIAVDFSLLPICNEEGSIVYLLAEGRNITDKKKAEAMLALKNQELEQSVECIRKLDNAKSDFFAKVSHELRTPLSLILGPLEAVMAAEAGRESPYWKQFEVIQRNAMTLLKQVNTLLDLAKMDARQMGLSYRRANLSQLTRTISSNFEGIAQQKSITFDTKLPVQMVAEVDCEKYERIILNLLSNAFKFTPDGGLIRCCLSLSRPNYALVTVSDSGPGIPPALRKEIFERFHQLSQEGQQATRGTGLGLSIVKEFVELHRGTISVSDAPGGGALFQVKLPLNAPEGAYVASNTAPRRDNPQVVDTDEYLLLAPNAENEAEVLPFQSDQPRVLIVEDNPDMRGFIKDCLSSDYQVYVAPDGAKALELMSNMPPDLLITDLIMPVMSGDMLVHQVRKKNELSHIPIMVLSAKSDAELRVKLLSESVQDFLLKPFSAHELRARVSNLVSMKVAGDALRKELSDQGDDIAILTHRLIKSRHRLQQSNIALSASEARWKAVYENSAAGIVLTDPENRILNANPAFQRITGYGEKDLEGLSMEQLTPSDESPQIKQRLANLLQGGGAEYSVERSYLCKNGSTIWANASVSLMPQRVGESPVILQIIDDITEKKQAQENLNQLQQQLVYVSRSATMGEFAAYIAHEINQPLSAIMTNANAGTRWLGNEPSNIPEAKEALARIIRDSDRAAEIIRMVRSFLKRQETVLKPIDLKALVTDTSLILKAPSQNNSVNLDVVADDELPEIWGDGVQIQQLIINLAMNAIEAISQADCETRQLTLSFSGNDTGDALVISVKDTGPGISERQMAQLFNAFYTTKKEGLGMGLAICLTITEVHNGKIWVECPPAGGACFLVSIPARQGSGT
notes: In pGST-Parallel1 (BamHI/XhoI); not shown: GST, N-terminal, cleaved
stoichiometry N [1]: 2

B2: TodS PAS2 (residues 611–729) (domain or fragment, Pseudomonas putida F1, UniProt A5W4E3 611-729, looked up)
chain: SEARWKAVYENSAAGIVLTDPENRILNANPAFQRITGYGEKDLEGLSMEQLTPSDESPQIKQRLANLLQGGGAEYSVERSYLCKNGSTIWANASVSLMPQRVGESPVILQIIDDITEKK
notes: TodS sensor kinase of Pseudomonas putida F1, residues 611–729 (PAS2 domain); also called PAS2(611–729); source: E. coli BL21 Star (DE3), purified (Ni-NTA, TEV protease, SEC Superdex G75, second Ni-NTA); not shown: His6, N-terminal, cleaved
stoichiometry N [2]: 2

B3: TodS (residues 43–978), C-terminal His6-tagged (enzyme, Pseudomonas putida F1, UniProt A5W4E3 43-978, looked up)
chain: LYEFVGLLDAHGNVLEVNQVALEGGGITLEEIRGKPFWKARWWQISKKTEATQKRLVETASSGEFVRCDVEILGKSGGREVIAVDFSLLPICNEEGSIVYLLAEGRNITDKKKAEAMLALKNQELEQSVECIRKLDNAKSDFFAKVSHELRTPLSLILGPLEAVMAAEAGRESPYWKQFEVIQRNAMTLLKQVNTLLDLAKMDARQMGLSYRRANLSQLTRTISSNFEGIAQQKSITFDTKLPVQMVAEVDCEKYERIILNLLSNAFKFTPDGGLIRCCLSLSRPNYALVTVSDSGPGIPPALRKEIFERFHQLSQEGQQATRGTGLGLSIVKEFVELHRGTISVSDAPGGGALFQVKLPLNAPEGAYVASNTAPRRDNPQVVDTDEYLLLAPNAENEAEVLPFQSDQPRVLIVEDNPDMRGFIKDCLSSDYQVYVAPDGAKALELMSNMPPDLLITDLIMPVMSGDMLVHQVRKKNELSHIPIMVLSAKSDAELRVKLLSESVQDFLLKPFSAHELRARVSNLVSMKVAGDALRKELSDQGDDIAILTHRLIKSRHRLQQSNIALSASEARWKAVYENSAAGIVLTDPENRILNANPAFQRITGYGEKDLEGLSMEQLTPSDESPQIKQRLANLLQGGGAEYSVERSYLCKNGSTIWANASVSLMPQRVGESPVILQIIDDITEKKQAQENLNQLQQQLVYVSRSATMGEFAAYIAHEINQPLSAIMTNANAGTRWLGNEPSNIPEAKEALARIIRDSDRAAEIIRMVRSFLKRQETVLKPIDLKALVTDTSLILKAPSQNNSVNLDVVADDELPEIWGDGVQIQQLIINLAMNAIEAISQADCETRQLTLSFSGNDTGDALVISVKDTGPGISERQMAQLFNAFYTTKKEGLGMGLAICLTITEVHNGKIWVECPPAGGACFLVSIPARQGSGT
notes: In pET28b(+) (NcoI/XhoI); source: E. coli BL21 Star (DE3), purified (Ni-NTA, SEC Superdex G200); not shown: His6, C-terminal, kept
stoichiometry N [3]: 2

B4: dimerization helix-containing PAS1 (residues 23–168) of TodS (domain or fragment, Pseudomonas putida F1, UniProt A5W4E3 23-168, looked up)
chain: KEKGSEELTCEEHARIIFDGLYEFVGLLDAHGNVLEVNQVALEGGGITLEEIRGKPFWKARWWQISKKTEATQKRLVETASSGEFVRCDVEILGKSGGREVIAVDFSLLPICNEEGSIVYLLAEGRNITDKKKAEAMLALKNQELE
notes: TodS sensor kinase of Pseudomonas putida F1, residues 23–168 (PAS1 domain with the predicted dimerization helix); In pHis-Parallel1 (NcoI/XhoI), which has a TEV site after the His6 tag; the tag was not removed for this construct; The forward primer adds Met-Gly before Lys23; also called PAS1(23–168); WT PAS1(23–168); source: E. coli C41(DE3), purified (Ni-NTA only); not shown: His6, …
stoichiometry N [4]: 2

B5: F79Y-PAS1(23–168) (domain or fragment, Pseudomonas putida F1, UniProt A5W4E3 23-168, looked up)
chain: B4 chain with F57Y
notes: TodS sensor kinase of Pseudomonas putida F1, residues 23–168 with F79Y; source: E. coli C41(DE3), purified (Ni-NTA only); not shown: His6, N-terminal, kept
stoichiometry N [4]: 2

B6: F46A-PAS1(23–168) (domain or fragment, Pseudomonas putida F1, UniProt A5W4E3 23-168, looked up)
chain: B4 chain with F24A
notes: TodS sensor kinase of Pseudomonas putida F1, residues 23–168 with F46A; source: E. coli C41(DE3), purified (Ni-NTA only); not shown: His6, N-terminal, kept
stoichiometry N [4]: 2

B7: V59A-PAS1(23–168) (domain or fragment, Pseudomonas putida F1, UniProt A5W4E3 23-168, looked up)
chain: B4 chain with V37A
notes: TodS sensor kinase of Pseudomonas putida F1, residues 23–168 with V59A; source: E. coli C41(DE3), purified (Ni-NTA only); not shown: His6, N-terminal, kept
stoichiometry N [4]: 2

B8: W85H-PAS1(23–168) (domain or fragment, Pseudomonas putida F1, UniProt A5W4E3 23-168, looked up)
chain: B4 chain with W63H
notes: TodS sensor kinase of Pseudomonas putida F1, residues 23–168 with W85H; source: E. coli C41(DE3), purified (Ni-NTA only); not shown: His6, N-terminal, kept
stoichiometry N [4]: 2

B9: E146A-PAS1(23–168) (domain or fragment, Pseudomonas putida F1, UniProt A5W4E3 23-168, looked up)
chain: B4 chain with E124A
notes: TodS sensor kinase of Pseudomonas putida F1, residues 23–168 with E146A; also called E146A mutant; source: E. coli C41(DE3), purified (Ni-NTA only); not shown: His6, N-terminal, kept
stoichiometry N [5]: 2
